{
  "source": "paper PMC2064962",
  "about": "“Inhibition of Protein Aggregation: Supramolecular Assemblies of Arginine Hold the Key” (PLoS ONE, 2007)",
  "biological_target": "the molecule itself",
  "assay": "SEC; SMART Superdex G75 column, 0.02 M sodium phosphate buffer pH 7.4 (PB), with or without 0.2 M arginine; 10 µg peptide in 50 µl, flow 100 µl/min, monitored at 257 nm; self-association, monomer and tetramer seen",
  "data": [
    {"protein": "DAEFGHDSGFEVRHQKLVFFAEDVGSNKGAIIGLMVGGVVIA (Amyloid beta 1-42, the cut product of mouse amyloid precursor protein (APP); numbers count on: the Aβ peptide; it was removed; also called Aβ_(1-42); mouse Aβ_(1-42); source: synthetic peptide (Fmoc chemistry, purified on ProRPC C-18); dissolved in 0.01 M NaOH before use)", "note": "[Mouse Alzheimer's amyloid beta 1-42 peptide]", "values": [
      {"measurement": "stoichiometry N", "value": 4}
    ]}
  ]
}
